The values that follow come from US20110286916A1 (published 2011).

Experiment [1] concerns the target T1, human full-length Notch3 with C-terminal FLAG tag, stably expressed on 293 FlpIn (TREx) cells (human, UniProt Q9UM47 40-2321).
T1 construct: whole, on cells; made by the same strategy as the Notch1 line; also called 293-N3; hN3
Put plainly: FACS, phage scFv. Background: A flow cytometer gives signals particle by particle.

Experiment [2] addresses T2, human full-length Notch1 with C-terminal FLAG tag, stably expressed on 293 FlpIn (TREx) cells (human, UniProt P46531 19-2555).
T2 construct: tetracycline/doxycycline-induced expression from pcDNA5/FRT/TO-HN1+FLAG; also called hN1; 293_N1
The experiment can be described thus: FACS, phage scFv.

B1: hN1S3-130 (scFv, V domains shown)
VH: KVQLVQSGAEVKKPGASVKVSCKASGYTFTDFYIHWVRQAPGQGLEWMGWINSKSGDTHYAQKFQGRVTLTRDTSTDTAYMELSRLTSDDTAVYYCARGAYDYVWGSSRYVADAFDIWGRGTMVTVSS
VL: DIVMTQSPSTLSASVGDRVTITCRASQGISSWLAWYQQKPGRAPKVLIYKASTLESGVPSRFSGSGSGTDFTLTISSLQPEDFATYYCQQSYSTPWTFGQGTKLEIK
notes: phage scFv
Regarding B1, the binding result in experiment [1] was “binds”.

B2: N1wc15 (scFv, V domains shown)
VH: QVQLQQSGAEVKKPGASVKVSCKASGYNFTGYYMHWVRQAPGQGLEWMGWINPNSGGTNYAQKFQGRVTMTRDTSISTAYMELSRLRSDDTAVYYCATDSFDYWGQGTMVTVSS
VL: not shown
notes: phage scFv
Take B2: the binding result in experiment [2] and in experiment [1] was “binds” in each case.

B3: N1wc131 (scFv, V domains shown)
VH: EVQLVQSGAEAKKPGASVKVSCKASGYNFTGYYMHWVRQAPGQGLEWMGWINPNSGGTNYAQKFQGRVTMTRDTSISTAYMELSRLRSDDTAVYYCATDSFDYWGQGTLVTVSS
VL: SYELTQPPSASGTPGQRVTISCSGTSSNIGINYVYWYQQLPRTAPKLLIYYNNQRPSGVPDRFSGSRSGTSASLAISGLRSEDEADYYCAAWDDSLSGLVFGTGTKLTVL
notes: phage scFv
With B3, the binding result in experiment [1] is “binds”.

B4: N1wc72 (scFv, V domains shown)
VH: EVQLVQSGAEVKKPGASVKVSCKASGYNFTGYYMHWVRQAPGQGLEWMGWINPNSGGTNYAQKFQGRVTMTRDTSISTAYMELSRLRSDDTAVYYCATDSFDYWGKGTMVTVSS
VL: QPVLTQPPSASGTPGQRVTISCSGSYSNIGSNYVYWYQQFPGTAPKLLIYTNNQRPSGVPDRFSGSKSGSSASLAISGLRSEDEADYYCAAWDDSVGVLLFGGGTKVTVL
notes: phage scFv
With B4, the binding result in experiment [1] is listed as “binds”.

B5: N1wc476 (scFv, V domains shown)
VH: EVQLVQSGAEVKKPGASVKVSCKASGYNFTGYYMHWVRQAPGQGLEWMGWINPNSGGTNYAQKFQGRVTMTRDTSISTAYMELSRLRSDDTAVYYCATDSFDYWGQGTLVTVSS
VL: QAVLTQPSSVSGTPGQTVTISCSGSNSNIGNNYVYWYQQLPGSAPKVVIYRNHQRPSGVPDRFSGSKSGTAASLAISGLRSEDEADYYCASWDDSLSGLVFGGGTKLTVL
notes: phage scFv
B5: the binding result in experiment [1] is “binds”.

B6: N1wc102 (scFv, V domains shown)
VH: QVQLVQSGAEVKKPGAPVKVSCKASGYNFTGYYMHWVRQAPGQGLEWMGWINPNSGGTNYAQKFQGRVAMTRDTSISTAYMELSRLRSDDTAVYYCATDSFDYWGQGTMVTVSS
VL: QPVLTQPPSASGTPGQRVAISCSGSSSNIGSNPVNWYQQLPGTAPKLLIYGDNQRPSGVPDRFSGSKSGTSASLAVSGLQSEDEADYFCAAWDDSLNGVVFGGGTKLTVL
notes: phage scFv
Take B6: the binding result in experiment [2] and in experiment [1] was “binds” each time.

B7: N1wc135 (scFv, V domains shown)
VH: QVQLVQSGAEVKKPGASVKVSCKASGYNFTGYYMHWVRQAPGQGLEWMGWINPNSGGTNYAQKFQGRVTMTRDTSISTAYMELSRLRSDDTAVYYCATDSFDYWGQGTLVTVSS
VL: LPVLTQPPSASGTPGQRVIISCSGSSSNIGSNYVYWYQQLPGTAPKLLIYRNNQRPSGVPDRFSGSKSGTSASLAISGLRSEDEADYHCAAWDDSLSGVVFGGGTKLTVL
notes: phage scFv
Regarding B7, the binding result in experiment [2] and in experiment [1] was “binds” throughout.

B8: N1wc248 (scFv, V domains shown)
VH: EVQLVQSGAEVKKPGASVKVSCKASGYNFTGYYMHWVRQAPGQGLEWMGWINPNSGGTNYAQKFQGRVTMTRDTSISTAYMELSRLRSDDSAVYYCATDSFDYWGRGTLVTVSS
VL: QSVLTQPPSASGTPGQRVTISCSGSSSNIGSNSVYWYQQFPGTAPKLLIYRNNQRPSGVPDRFSGSKSDTSASLAISGLRSEDEADYYCATWDDSLSGVVFGGGTKLTVL
notes: phage scFv
Regarding B8, the binding result in experiment [2] and in experiment [1] was “binds” in each case.

B9: N1wc403 (scFv, V domains shown)
VH: EVQLVQSGAEVKKPGASVKVSCKASGYNFTGYYMHWVRQAPGQGLEWMGWINPNSGGTNYAQKFQGRVTMTRDTSISTAYMELSRLRSDDTAVYYCATDSFDYWGRGTLVTVSS
VL: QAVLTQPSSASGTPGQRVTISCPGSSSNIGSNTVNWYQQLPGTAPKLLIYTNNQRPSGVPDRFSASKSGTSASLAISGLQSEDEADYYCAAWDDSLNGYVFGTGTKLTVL
notes: phage scFv
For B9, the binding result in experiment [2] and in experiment [1] was “binds” in each case.
